B1: Glutamate dehydrogenase, Q56304 (parent)
chain: MVEQDPFEIAVKQLERAAQYMDISEEALEFLKRPQRIVEVSIPVEMDDGSVKVFTGFRVQYNWARGPTKGGIRWHPEETLSTVKALAAWMTWKTAVMDLPYGGGKGGVICNPKEMSDREKERLARGYVRAIYDVISPYTDIPAPDVYTNPQIMAWMMDEYETISRRKDPSFGVITGKPPSVGGIVARMDATARGASYTVREAAKALGMDLKGKTIAIQGYGNAGYYMAKIMSEEYGMKVVAVSDSKGGIYNPDGLNADEVLAWKKKTGSVKDFPGATNITNEELLELEVDVLAPSAIEEVITKKNADNIKAKIVAELANGPTTPEADEILYEKGILIIPDFLCNAGGVTVSYFEWVQNITGDYWTVEETRAKLDKKMTKAFWDVYNTHKEKNINMRDAAYVVAVSRVYQAMKDRGWIKK
B2: Ornithine carbamoyltransferase subunit I, P04391 (parent)
chain: MSGFYHKHFLKLLDFTPAELNSLLQLAAKLKADKKSGKEEAKLTGKNIALIFEKDSTRTRCSFEVAAYDQGARVTYLGPSGSQIGHKESIKDTARVLGRMYDGIQYRGYGQEIVETLAEYASVPVWNGLTNEFHPTQLLADLLTMQEHLPGKAFNEMTLVYAGDARNNMGNSMLEAAALTGLDLRLVAPQACWPEAALVTECRALAQQNGGNITLTEDVAKGVEGADFIYTDVWVSMGEAKEKWAERIALLREYQVNSKMMQLTGNPEVKFLHCLPAFHDDQTTLGKKMAEEFGLHGGMEVTDEVFESAASIVFDQAENRMHTIKAVMVATLSK
B3: Gamma-crystallin D, P07320 (parent)
chain: MGKITLYEDRGFQGRHYECSSDHPNLQPYLSRCNSARVDSGCWMLYEQPNYSGLQYFLRRGDYADHQQWMGLSDSVRSCRLIPHSGSHRIRLYEREDYRGQMIEFTEDCSCLQDRFRFNEIHSLNVLEGSWVLYELSNYRGRQYLLMPGDYRRYQDWGATNARVGSLRRVIDFS
B4: Subtilisin BPN', P00782 (parent)
chain: MRGKKVWISLLFALALIFTMAFGSTSSAQAAGKSNGEKKYIVGFKQTMSTMSAAKKKDVISEKGGKVQKQFKYVDAASATLNEKAVKELKKDPSVAYVEEDHVAHAYAQSVPYGVSQIKAPALHSQGYTGSNVKVAVIDSGIDSSHPDLKVAGGASMVPSETNPFQDNNSHGTHVAGTVAALNNSIGVLGVAPSASLYAVKVLGADGSGQYSWIINGIEWAIANNMDVINMSLGGPSGSAALKAAVDKAVASGVVVVAAAGNEGTSGSSSTVGYPGKYPSVIAVGAVDSSNQRASFSSVGPELDVMAPGVSIQSTLPGNKYGAYNGTSMASPHVAGAAALILSKHPNWTNTQVRSSLENTTTKLGDSFYYGKGLINVQAAAQ
B5: Triosephosphate isomerase, glycosomal, P04789 (parent)
chain: MSKPQPIAAANWKCNGSQQSLSELIDLFNSTSINHDVQCVVASTFVHLAMTKERLSHPKFVIAAQNAIAKSGAFTGEVSLPILKDFGVNWIVLGHSERRAYYGETNEIVADKVAAAVASGFMVIACIGETLQERESGRTAVVVLTQIAAIAKKLKKADWAKVVIAYEPVWAIGTGKVATPQQAQEAHALIRSWVSSKIGADVAGELRILYGGSVNGKNARTLYQQRDVNGFLVGGASLKPEFVDIIKATQ
B6: Protein GrpE, Q65H53 (parent)
chain: MAEEKQNEELNEQEELNETEAETAEAEQTAAEADAPAEETQTEMLEKQLKELQERLEEKENKLLRVQADFENYKRRARLDLEAAEKYRSQRIISDLLPALDNFERALQIDPDNEQTKSLLQGMEMVHRQILEALKNEGVEQIPSVGEQFDPNMHQAVMQVEDEAYESNAVVEELQKGYKLKDRVIRPSMVKVNQ
B7: Acylphosphatase-1, P41500 (parent)
chain: MSMAEGDTLISVDYEIFGKVQGVFFRKYTQAEGKKLGLVGWVQNTDQGTVQGQLQGPASKVRHMQEWLETKGSPKSHIDRASFHNEKVIVKLDYTDFQIVK
B8: Azurin, P00282 (parent)
chain: MLRKLAAVSLLSLLSAPLLAAECSVDIQGNDQMQFNTNAITVDKSCKQFTVNLSHPGNLPKNVMGHNWVLSTAADMQGVVTDGMASGLDKDYLKPDDSRVIAHTKLIGSGEKDSVTFDVSKLKEGEQYMFFCTFPGHSALMKGTLTLK

Variants of: B1
Conditions: Thermococcus litoralis (strain ATCC 51850 / DSM 5473 / JCM 8560 / NS-C); pH 7; Thermal; DSC; diglycine 50 mM; KCl 700 mM; reversible: no; structure 1BVU; whole UniProt chain shown

With T139E as the variant, how does the Tm read?
The Tm was 104 °C.

And the “change of melting temperature, mutant - wild type (higher = more stable)” value (from here on “change of melting temperature, mutant”)?
The value was -5.5 °C.

Variants of: B2
Conditions: Escherichia coli (strain K12); pH 8.3; Thermal; DSC; borate 40 mM; structure 1AKM; whole UniProt chain shown

For K87Q, which Tm is on record?
Its Tm is 69.7 °C.

What about the “unfolding enthalpy (calorimetric)” value of the same variant?
The value was 690 kcal/mol.

Which Tm does the source give for A326G here?
Its Tm is 63 °C.

What about the “unfolding enthalpy (calorimetric)” value of the same variant?
Its value is 660 kcal/mol.

What does the source list for R320A?
Tm: 69.6 °C; unfolding enthalpy (calorimetric): 710 kcal/mol

Variants of: B3
Conditions: Homo sapiens; pH 7; Thermal; ANS fluorescence; PBS; transition: 2; reversible: yes; structure 1HK0; whole UniProt chain shown

Which results are given for G61C?
Tm: 69.6 °C; change of melting temperature, mutant - wild type (higher = more stable): -7 °C

Same assay, conditions: Homo sapiens; pH 7; Thermal; CD; PBS; transition: 2; reversible: yes; structure 1HK0; whole UniProt chain shown

Which results are given for G61C?
Tm: 73.9 °C; change of melting temperature, mutant - wild type (higher = more stable): -6.1 °C

Same assay, conditions: Homo sapiens; pH 7; Thermal; Fluorescence; PBS; transition: 2; reversible: yes; structure 1HK0; whole UniProt chain shown

Which Tm does the source give for G61C here?
The Tm was 74.3 °C.

Same assay, conditions: Homo sapiens; pH 7; Thermal; light scattering; PBS; transition: 2; reversible: yes; structure 1HK0; whole UniProt chain shown

With G61C as the variant, how does the Tm read?
The Tm was 75.1 °C.

Variants of: B4
Conditions: Bacillus amyloliquefaciens; pH 8; Thermal; DSC; Tris-HCl 50 mM; KCl 50 mM; structure 1SUP; whole UniProt chain shown

With T129C as the variant, how does the Tm read?
Its Tm is 56.4 °C.

What about the “change of melting temperature, mutant” value of the same variant?
The value was -2.5 °C.

With T129C S194C as the variant, how does the Tm read?
Its Tm is 62 °C.

And the “change of melting temperature, mutant” value?
Its value is 3.1 °C.

With S194C as the variant, how does the Tm read?
Its Tm is 57.2 °C.

And the “change of melting temperature, mutant” value?
Its value is -1.7 °C.

Same assay, conditions: Bacillus amyloliquefaciens; pH 8; Thermal; DSC; Tris-HCl 50 mM; CaCl2 10 mM; reversible: no; structure 1SUP; whole UniProt chain shown

With N325S as the variant, how does the Tm read?
Its Tm is 80.7 °C.

What about the “change of melting temperature, mutant” value of the same variant?
Its value is 2.4 °C.

Same assay, conditions: Bacillus amyloliquefaciens; pH 5; 20 °C; Thermal; DSC; Sodium acetate 100 mM; reversible: yes; structure 1SUP; whole UniProt chain shown

For K87E, which “ddG of mutation (higher = less stable)” value is on record?
The value was 1 kcal/mol.

And the unfolding free energy?
The unfolding free energy was 1.1 kcal/mol.

For Q70L, which “ddG of mutation (higher = less stable)” value is on record?
The value was 1.1 kcal/mol.

And the unfolding free energy?
The unfolding free energy was 1 kcal/mol.

Which results are given for E62Q K87E?
ddG of mutation (higher = less stable): 1.3 kcal/mol; unfolding free energy: 0.8 kcal/mol

Same assay, conditions: Bacillus amyloliquefaciens; pH 9.63; Thermal; DSC; glycine 50 mM; reversible: yes; structure 1SUP; whole UniProt chain shown

With M157F Y324K N325S S328C as the variant, how does the Tm read?
The Tm was 63.5 °C.

What about the “unfolding enthalpy (calorimetric)” value of the same variant?
Its value is 140 kcal/mol.

What about the “unfolding enthalpy (van 't Hoff)” value of the same variant?
Its value is 140 kcal/mol.

Same assay, conditions: Bacillus amyloliquefaciens; pH 7.5; Thermal; fluorescence; Pipes 10 mM; transition: 2; structure 1AK9; whole UniProt chain shown

Which Tm does the source give for T173M G209D here?
Its Tm is 56.3 °C.

And the “change of melting temperature, mutant” value?
The value was -0.5 °C.

What about the “unfolding enthalpy (calorimetric)” value of the same variant?
The value was 72.8 kcal/mol.

Variants of: B5
Conditions: Trypanosoma brucei brucei; pH 7; Thermal; CD; 3-(N-morpholino)propanesulfonic acid/dithiothreitol 20 mM/0.02 mM; EDTA 0.02 mM; structure 3TIM; whole UniProt chain shown

Which Tm does the source give for R191A here?
Its Tm is 47.3 °C.

Which Tm does the source give for R191S here?
The Tm was 51.6 °C.

For D227N, which Tm is on record?
Its Tm is 49.3 °C.

Which Tm does the source give for D227A here?
Its Tm is 48.7 °C.

Same assay, conditions: Trypanosoma brucei brucei; pH 7; Thermal; CD; MOPS 20 mM; reversible: no; structure 1TPE; whole UniProt chain shown

For T75R G76Q, which Tm is on record?
Its Tm is 52 °C.

What about the “change of melting temperature, mutant” value of the same variant?
The value was -5 °C.

Same assay, conditions: Trypanosoma brucei brucei; pH 7.4; Thermal; CD; MOPS 20 mM; EDTA 1 mM; reversible: no; structure 1TPE; whole UniProt chain shown

For C14F, which Tm is on record?
The Tm was 46.5 °C.

What about the “change of melting temperature, mutant” value of the same variant?
Its value is -4.9 °C.

Variants of: B6
Conditions: Bacillus licheniformis (strain ATCC 14580 / DSM 13 / JCM 2505 / CCUG 7422 / NBRC 12200 / NCIMB 9375 / NCTC 10341 / NRRL NRS-1264 / Gibson 46…; pH 7; Thermal; CD; Hepes 10 mM; reversible: Yes; whole UniProt chain shown

What does the source list for L52P?
Tm: 40.1 °C; change of melting temperature, mutant - wild type (higher = more stable): -11.9 °C; unfolding enthalpy (van 't Hoff): 37.5 kcal/mol

For L134H, which Tm is on record?
Its Tm is 43.2 °C.

What about the “change of melting temperature, mutant” value of the same variant?
The value was -8.8 °C.

And the “unfolding enthalpy (van 't Hoff)” value?
Its value is 21 kcal/mol.

Variants of: B7
Conditions: Bos taurus; pH 5.5; 25 °C; Thermal; CD; sodium acetate 5 mM; reversible: Yes; structure 2ACY; whole UniProt chain shown

Which “ddG of mutation (higher = less stable)” value does the source give for K27E E66K N85K Q98K here?
Its value is -1.67 kcal/mol.

Same assay, conditions: Bos taurus; pH 5.5; Thermal; CD; sodium acetate 5 mM; reversible: Yes; structure 2ACY; whole UniProt chain shown

With K27E E66K N85K Q98K as the variant, how does the “change of melting temperature, mutant” value read?
The value was 5.4 °C.

Same assay, conditions: Bos taurus; pH 7; 25 °C; Thermal; DSC; sodium phosphate 50 mM; reversible: Yes; structure 2ACY; whole UniProt chain shown

With K27E E66K N85K Q98K as the variant, how does the “ddG of mutation (higher = less stable)” value read?
Its value is -1.67 kcal/mol.

Same assay, conditions: Bos taurus; pH 7; Thermal; DSC; sodium phosphate 50 mM; reversible: Yes; structure 2ACY; whole UniProt chain shown

Which “change of melting temperature, mutant” value does the source give for K27E E66K N85K Q98K here?
The value was 5.4 °C.

Variants of: B8
Conditions: Pseudomonas aeruginosa (strain ATCC 15692 / DSM 22644 / CIP 104116 / JCM 14847 / LMG 12228 / 1C / PRS 101 / PAO1); pH 7.5; 40 °C; GdnHCl; Fluorescence; Tris Cl 2 mM; reversible: Yes; structure 5AZU; whole UniProt chain shown

What does the source list for I27S?
ddG of mutation (higher = less stable): 6.4 kcal/mol; unfolding free energy: 2.2 kcal/mol

With F130S as the variant, how does the “ddG of mutation (higher = less stable)” value read?
The value was 6.4 kcal/mol.

And the unfolding free energy?
The unfolding free energy was 2.2 kcal/mol.

Same assay, conditions: Pseudomonas aeruginosa (strain ATCC 15692 / DSM 22644 / CIP 104116 / JCM 14847 / LMG 12228 / 1C / PRS 101 / PAO1); pH 7; 20 °C; GdnHCl; CD; phosphate 5 mM; reversible: yes; structure 5AZU; whole UniProt chain shown

Which denaturant m value does the source give for H66G here?
Its denaturant m value is 3.94 kcal/mol/M.

What about the “denaturant midpoint (higher = more stable)” value of the same variant?
Its value is 1.1 M.

And the unfolding free energy?
The unfolding free energy was 4.35 kcal/mol.

From FireProtDB
